Laboratory results from patent US20230312722A1 (NONA BIOSCIENCES SUZHOU, published 2023).

B1: PR002849 (bispecific antibody, human IgG1, kappa, L234A L235A)
light: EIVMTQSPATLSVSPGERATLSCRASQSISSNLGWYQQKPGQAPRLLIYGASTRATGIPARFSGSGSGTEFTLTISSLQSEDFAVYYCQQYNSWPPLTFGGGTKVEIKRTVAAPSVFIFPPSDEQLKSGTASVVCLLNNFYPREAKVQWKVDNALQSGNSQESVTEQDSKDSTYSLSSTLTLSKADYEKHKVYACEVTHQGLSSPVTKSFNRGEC
heavy: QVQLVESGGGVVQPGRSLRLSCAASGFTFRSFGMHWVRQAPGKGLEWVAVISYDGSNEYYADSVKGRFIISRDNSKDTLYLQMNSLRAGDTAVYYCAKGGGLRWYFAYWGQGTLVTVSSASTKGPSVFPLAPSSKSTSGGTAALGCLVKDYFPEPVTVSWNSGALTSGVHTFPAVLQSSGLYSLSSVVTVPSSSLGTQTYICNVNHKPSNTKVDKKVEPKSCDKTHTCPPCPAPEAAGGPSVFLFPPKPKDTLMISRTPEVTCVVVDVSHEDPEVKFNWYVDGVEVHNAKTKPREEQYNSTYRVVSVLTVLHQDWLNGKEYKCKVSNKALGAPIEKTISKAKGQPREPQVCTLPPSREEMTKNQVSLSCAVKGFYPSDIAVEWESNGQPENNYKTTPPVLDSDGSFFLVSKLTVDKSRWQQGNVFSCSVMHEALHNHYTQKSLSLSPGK
chain: QAVVTQEPSLTVSPGGTVTLTCRSSTGAVTTSNYANWVQQKPGQAPRGLIGGTNKRAPWTPARFSGSLLGDKAALTLLGAQPEDEAEYFCALWYSNLWVFGGGTKLTVLGGGQSGQGGSGGGGSEVQLVESGGGLVQPGGSLKLSCAASGFTFNTYAMNWVRQASGKGLEWVGRIRSKYNNYATYYADSVKDRFTISRDDSKSTLYLQMNSLKTEDTAVYYCVRHGNFGNSYVSWFAYWGQGTLVTVSSASEPKSSDKTHTCPPCPAPEAAGGPSVFLFPPKPKDTLMISRTPEVTCVVVDVSHEDPEVKFNWYVDGVEVHNAKTKPREEQYNSTYRVVSVLTVLHQDWLNGKEYKCKVSNKALGAPIEKTISKAKGQPREPQVYTLPPCREEMTKNQVSLWCLVKGFYPSDIAVEWESNGQPENNYKTTPPVLDSDGSFFLYSKLTVDKSRWQQGNVFSCSVMHEALHNHYTQKSLSLSPGK
notes: B7H4 x CD3, 1+1 Fab-Fc-scFv (structure 1): B7H4 Fab from PR001476 (hole, AAG), CD3 scFv(VL-VH)-Fc from PR000627 (knob, AAG)
B2: PR002850 (bispecific antibody, human IgG1, kappa, L234A L235A)
light: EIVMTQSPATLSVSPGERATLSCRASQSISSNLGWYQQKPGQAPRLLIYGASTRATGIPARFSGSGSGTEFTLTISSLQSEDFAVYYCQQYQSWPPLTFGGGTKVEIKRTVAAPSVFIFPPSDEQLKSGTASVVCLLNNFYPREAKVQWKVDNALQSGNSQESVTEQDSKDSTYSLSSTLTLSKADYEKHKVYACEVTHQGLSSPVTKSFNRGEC
heavy: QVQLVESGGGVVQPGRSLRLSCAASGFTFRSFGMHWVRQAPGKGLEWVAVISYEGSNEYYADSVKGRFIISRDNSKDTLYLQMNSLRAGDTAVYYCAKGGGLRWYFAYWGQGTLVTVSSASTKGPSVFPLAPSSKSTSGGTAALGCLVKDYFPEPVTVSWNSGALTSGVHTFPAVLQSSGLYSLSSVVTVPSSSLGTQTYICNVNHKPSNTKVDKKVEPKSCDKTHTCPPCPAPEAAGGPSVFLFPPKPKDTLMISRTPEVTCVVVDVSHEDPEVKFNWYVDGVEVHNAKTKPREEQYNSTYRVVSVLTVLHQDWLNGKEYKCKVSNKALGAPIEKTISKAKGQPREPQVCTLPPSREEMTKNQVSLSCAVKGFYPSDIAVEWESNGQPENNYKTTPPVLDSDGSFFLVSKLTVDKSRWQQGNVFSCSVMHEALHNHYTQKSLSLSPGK
chain: QAVVTQEPSLTVSPGGTVTLTCRSSTGAVTTSNYANWVQQKPGQAPRGLIGGTNKRAPWTPARFSGSLLGDKAALTLLGAQPEDEAEYFCALWYSNLWVFGGGTKLTVLGGGQSGQGGSGGGGSEVQLVESGGGLVQPGGSLKLSCAASGFTFNTYAMNWVRQASGKGLEWVGRIRSKYNNYATYYADSVKDRFTISRDDSKSTLYLQMNSLKTEDTAVYYCVRHGNFGNSYVSWFAYWGQGTLVTVSSASEPKSSDKTHTCPPCPAPEAAGGPSVFLFPPKPKDTLMISRTPEVTCVVVDVSHEDPEVKFNWYVDGVEVHNAKTKPREEQYNSTYRVVSVLTVLHQDWLNGKEYKCKVSNKALGAPIEKTISKAKGQPREPQVYTLPPCREEMTKNQVSLWCLVKGFYPSDIAVEWESNGQPENNYKTTPPVLDSDGSFFLYSKLTVDKSRWQQGNVFSCSVMHEALHNHYTQKSLSLSPGK
notes: B7H4 x CD3, 1+1 Fab-Fc-scFv (structure 1): B7H4 Fab from PR002405, CD3 scFv-Fc from PR000627
B3: PR002851 (bispecific antibody, human IgG1, kappa, L234A L235A)
light: not shown
heavy: not shown
chain: QAVVTQEPSLTVSPGGTVTLTCRSSTGAVTTSNYANWVQQKPGQAPRGLIGGTNKRAPWTPARFSGSLLGDKAALTLLGAQPEDEAEYFCALWYSNLWVFGGGTKLTVLGGGQSGQGGSGGGGSEVQLVESGGGLVQPGGSLKLSCAASGFTFNTYAMNWVRQASGKGLEWVGRIRSKYNNYATYYADSVKDRFTISRDDSKSTLYLQMNSLKTEDTAVYYCVRHGNFGNSYVSWFAYWGQGTLVTVSSASEPKSSDKTHTCPPCPAPEAAGGPSVFLFPPKPKDTLMISRTPEVTCVVVDVSHEDPEVKFNWYVDGVEVHNAKTKPREEQYNSTYRVVSVLTVLHQDWLNGKEYKCKVSNKALGAPIEKTISKAKGQPREPQVYTLPPCREEMTKNQVSLWCLVKGFYPSDIAVEWESNGQPENNYKTTPPVLDSDGSFFLYSKLTVDKSRWQQGNVFSCSVMHEALHNHYTQKSLSLSPGK
notes: B7H4 x CD3, 1+1 Fab-Fc-scFv (structure 1): B7H4 Fab from PR002408, CD3 scFv-Fc from PR000627
B4: PR002855 (bispecific antibody, human IgG1, kappa, lambda, L234A L235A)
chain 1: EVQLLESGGGLVQPGGSLRLSCAASGFTFSTYAMNWVRQAPGKGLEWVSRIRSKYNNYATYYADSVKDRFTISRDDSKSTLYLQMNSLRAEDTAVYYCVRHGNFGNSYVSWFAYWGQGTLVTVSSASTKGPSVFPLAPSSKSTSGGTAALGCLVKDYFPEPVTVSWNSGALTSGVHTFPAVLQSSGLYSLSSVVTVPSSSLGTQTYICNVNHKPSNTKVDKKVEPKSC
chain 2: QAVVTQEPSLTVSPGGTVTLTCRSSTGAVTTSNYANWVQQKPGQAPRGLIGGTNKRAPWTPARFSGSLLGDKAALTLLGAQPEDEAEYFCALWYSNLWVFGGGTKLTVLGQPKAAPSVTLFPPSSEELQANKATLVCLISDFYPGAVTVAWKADSSPVKAGVETTTPSKQSNNKYAASSYLSLTPEQWKSHRSYSCQVTHEGSTVEKTVAPTECSDKTHTCPPCPAPEAAGGPSVFLFPPKPKDTLMISRTPEVTCVVVDVSHEDPEVKFNWYVDGVEVHNAKTKPREEQYNSTYRVVSVLTVLHQDWLNGKEYKCKVSNKALGAPIEKTISKAKGQPREPQVYTLPPCREEMTKNQVSLWCLVKGFYPSDIAVEWESNGQPENNYKTTPPVLDSDGSFFLYSKLTVDKSRWQQGNVFSCSVMHEALHNHYTQKSLSLSPGK
heavy: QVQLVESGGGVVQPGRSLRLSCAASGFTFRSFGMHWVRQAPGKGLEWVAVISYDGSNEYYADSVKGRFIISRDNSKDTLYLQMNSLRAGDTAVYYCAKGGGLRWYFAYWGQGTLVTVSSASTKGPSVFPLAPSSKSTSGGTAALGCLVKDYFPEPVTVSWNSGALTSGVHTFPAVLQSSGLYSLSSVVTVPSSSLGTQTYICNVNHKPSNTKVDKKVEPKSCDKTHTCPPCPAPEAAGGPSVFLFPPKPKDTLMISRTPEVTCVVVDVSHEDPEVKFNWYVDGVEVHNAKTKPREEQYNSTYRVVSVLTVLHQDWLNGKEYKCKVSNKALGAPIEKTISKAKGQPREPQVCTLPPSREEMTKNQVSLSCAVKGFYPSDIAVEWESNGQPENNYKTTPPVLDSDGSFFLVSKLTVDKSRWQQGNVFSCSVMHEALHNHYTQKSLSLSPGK
light: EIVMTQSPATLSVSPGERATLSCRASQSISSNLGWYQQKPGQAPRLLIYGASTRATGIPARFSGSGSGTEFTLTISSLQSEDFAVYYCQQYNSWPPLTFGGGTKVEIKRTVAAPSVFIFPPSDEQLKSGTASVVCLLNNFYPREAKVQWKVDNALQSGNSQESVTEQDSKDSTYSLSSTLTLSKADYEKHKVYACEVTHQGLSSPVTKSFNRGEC
notes: B7H4 x CD3, 1+1 Fab-Fc-crossFab (structure 4): CD3 Fab(cross Fd/LC) from PR001924 (chains 1 and 2), B7H4 Fab from PR001476 (chains 3 and 4)
B5: PR002856 (bispecific antibody, human IgG1, kappa, lambda, L234A L235A)
chain 1: EVQLLESGGGLVQPGGSLRLSCAASGFTFSTYAMNWVRQAPGKGLEWVSRIRSKYNNYATYYADSVKDRFTISRDDSKSTLYLQMNSLRAEDTAVYYCVRHGNFGNSYVSWFAYWGQGTLVTVSSASTKGPSVFPLAPSSKSTSGGTAALGCLVKDYFPEPVTVSWNSGALTSGVHTFPAVLQSSGLYSLSSVVTVPSSSLGTQTYICNVNHKPSNTKVDKKVEPKSC
chain 2: QAVVTQEPSLTVSPGGTVTLTCRSSTGAVTTSNYANWVQQKPGQAPRGLIGGTNKRAPWTPARFSGSLLGDKAALTLLGAQPEDEAEYFCALWYSNLWVFGGGTKLTVLGQPKAAPSVTLFPPSSEELQANKATLVCLISDFYPGAVTVAWKADSSPVKAGVETTTPSKQSNNKYAASSYLSLTPEQWKSHRSYSCQVTHEGSTVEKTVAPTECSDKTHTCPPCPAPEAAGGPSVFLFPPKPKDTLMISRTPEVTCVVVDVSHEDPEVKFNWYVDGVEVHNAKTKPREEQYNSTYRVVSVLTVLHQDWLNGKEYKCKVSNKALGAPIEKTISKAKGQPREPQVYTLPPCREEMTKNQVSLWCLVKGFYPSDIAVEWESNGQPENNYKTTPPVLDSDGSFFLYSKLTVDKSRWQQGNVFSCSVMHEALHNHYTQKSLSLSPGK
heavy: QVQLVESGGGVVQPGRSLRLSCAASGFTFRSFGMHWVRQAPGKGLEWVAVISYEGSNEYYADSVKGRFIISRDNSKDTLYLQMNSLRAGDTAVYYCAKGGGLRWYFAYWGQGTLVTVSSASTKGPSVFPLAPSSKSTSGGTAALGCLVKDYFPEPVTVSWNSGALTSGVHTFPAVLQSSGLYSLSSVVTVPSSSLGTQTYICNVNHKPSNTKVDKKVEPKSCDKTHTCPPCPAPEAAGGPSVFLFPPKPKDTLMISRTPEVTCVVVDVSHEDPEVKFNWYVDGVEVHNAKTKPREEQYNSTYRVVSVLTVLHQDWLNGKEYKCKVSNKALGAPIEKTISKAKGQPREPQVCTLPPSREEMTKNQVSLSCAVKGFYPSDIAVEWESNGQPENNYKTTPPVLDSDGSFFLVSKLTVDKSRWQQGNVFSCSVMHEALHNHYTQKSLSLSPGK
light: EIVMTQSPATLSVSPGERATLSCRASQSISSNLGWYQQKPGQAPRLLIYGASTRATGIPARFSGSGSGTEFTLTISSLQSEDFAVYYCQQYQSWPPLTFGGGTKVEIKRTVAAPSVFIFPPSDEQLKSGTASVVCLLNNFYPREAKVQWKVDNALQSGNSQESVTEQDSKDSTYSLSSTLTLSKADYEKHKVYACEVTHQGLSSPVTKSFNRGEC
notes: B7H4 x CD3, 1+1 Fab-Fc-crossFab (structure 4): CD3 crossFab from PR001924, B7H4 Fab from PR002405
B6: PR002857 (bispecific antibody, human IgG1, kappa, lambda, L234A L235A)
chain 1: EVQLLESGGGLVQPGGSLRLSCAASGFTFSTYAMNWVRQAPGKGLEWVSRIRSKYNNYATYYADSVKDRFTISRDDSKSTLYLQMNSLRAEDTAVYYCVRHGNFGNSYVSWFAYWGQGTLVTVSSASTKGPSVFPLAPSSKSTSGGTAALGCLVKDYFPEPVTVSWNSGALTSGVHTFPAVLQSSGLYSLSSVVTVPSSSLGTQTYICNVNHKPSNTKVDKKVEPKSC
chain 2: QAVVTQEPSLTVSPGGTVTLTCRSSTGAVTTSNYANWVQQKPGQAPRGLIGGTNKRAPWTPARFSGSLLGDKAALTLLGAQPEDEAEYFCALWYSNLWVFGGGTKLTVLGQPKAAPSVTLFPPSSEELQANKATLVCLISDFYPGAVTVAWKADSSPVKAGVETTTPSKQSNNKYAASSYLSLTPEQWKSHRSYSCQVTHEGSTVEKTVAPTECSDKTHTCPPCPAPEAAGGPSVFLFPPKPKDTLMISRTPEVTCVVVDVSHEDPEVKFNWYVDGVEVHNAKTKPREEQYNSTYRVVSVLTVLHQDWLNGKEYKCKVSNKALGAPIEKTISKAKGQPREPQVYTLPPCREEMTKNQVSLWCLVKGFYPSDIAVEWESNGQPENNYKTTPPVLDSDGSFFLYSKLTVDKSRWQQGNVFSCSVMHEALHNHYTQKSLSLSPGK
heavy: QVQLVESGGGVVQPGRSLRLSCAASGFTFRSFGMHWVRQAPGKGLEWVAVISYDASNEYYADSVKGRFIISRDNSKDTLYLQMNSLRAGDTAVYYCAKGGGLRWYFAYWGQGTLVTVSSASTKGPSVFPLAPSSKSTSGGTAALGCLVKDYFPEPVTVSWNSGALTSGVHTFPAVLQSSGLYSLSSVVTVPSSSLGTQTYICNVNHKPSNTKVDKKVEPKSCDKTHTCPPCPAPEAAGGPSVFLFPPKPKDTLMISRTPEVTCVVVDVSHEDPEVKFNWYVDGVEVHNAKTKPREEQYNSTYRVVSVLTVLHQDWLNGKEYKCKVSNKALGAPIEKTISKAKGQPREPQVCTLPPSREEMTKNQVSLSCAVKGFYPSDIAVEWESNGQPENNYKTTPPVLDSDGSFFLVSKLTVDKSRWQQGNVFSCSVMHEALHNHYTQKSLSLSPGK
light: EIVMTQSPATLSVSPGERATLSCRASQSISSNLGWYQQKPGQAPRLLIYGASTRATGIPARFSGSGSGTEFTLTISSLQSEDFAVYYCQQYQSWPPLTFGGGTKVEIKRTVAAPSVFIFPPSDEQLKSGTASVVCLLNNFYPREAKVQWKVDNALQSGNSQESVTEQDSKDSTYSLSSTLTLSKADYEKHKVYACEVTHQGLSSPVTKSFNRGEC
notes: B7H4 x CD3, 1+1 Fab-Fc-crossFab (structure 4): CD3 crossFab from PR001924, B7H4 Fab from PR002408
B7: PR003733 (bispecific antibody, human IgG1, lambda, L234A L235A)
light: QAVVTQEPSLTVSPGGTVTLTCRSSTGAVTTSNYANWVQQKPGQAPRGLIGGTNKRAPWTPARFSGSLLGDKAALTLLGAQPEDEAEYFCALWYSNLWVFGGGTKLTVLGQPKAAPSVTLFPPSSEELQANKATLVCLISDFYPGAVTVAWKADSSPVKAGVETTTPSKQSNNKYAASSYLSLTPEQWKSHRSYSCQVTHEGSTVEKTVAPTECS
heavy: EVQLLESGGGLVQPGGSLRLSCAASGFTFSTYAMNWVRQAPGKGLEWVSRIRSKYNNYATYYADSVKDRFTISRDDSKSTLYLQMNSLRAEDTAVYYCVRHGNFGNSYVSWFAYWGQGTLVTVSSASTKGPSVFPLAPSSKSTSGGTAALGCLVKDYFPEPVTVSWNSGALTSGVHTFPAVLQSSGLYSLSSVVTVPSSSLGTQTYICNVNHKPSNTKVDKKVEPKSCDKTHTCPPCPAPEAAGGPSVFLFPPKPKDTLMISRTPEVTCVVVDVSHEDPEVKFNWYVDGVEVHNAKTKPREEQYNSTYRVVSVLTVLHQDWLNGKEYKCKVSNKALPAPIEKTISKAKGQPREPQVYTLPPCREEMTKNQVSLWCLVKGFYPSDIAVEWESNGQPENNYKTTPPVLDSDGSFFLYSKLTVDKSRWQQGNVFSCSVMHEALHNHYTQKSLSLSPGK
chain: EIVMTQSPASLSVSPGERATLSCRASQSVSSNLAWYQQKPGQAPRLLIYGASTRATGIPARVSGGGSGTEFTLTISSLQSEDFAVYYCQQYKNWPFTFGPGTKLEIKGGGGSGGGGSGGGGSGGGGSQVQLVQSGAEVKKPGSSMRVSCKASEDTFSSYAISWVRQAPGQGLEWMGGTAPIFGTTNYAQKFQGRVTITADKSTSTAYMELSSLRSEDTAVYYCARGGPYFDYWGQGTLVTVSSASEPKSSDKTHTCPPCPAPEAAGGPSVFLFPPKPKDTLMISRTPEVTCVVVDVSHEDPEVKFNWYVDGVEVHNAKTKPREEQYNSTYRVVSVLTVLHQDWLNGKEYKCKVSNKALPAPIEKTISKAKGQPREPQVCTLPPSREEMTKNQVSLSCAVKGFYPSDIAVEWESNGQPENNYKTTPPVLDSDGSFFLVSKLTVDKSRWQQGNVFSCSVMHEALHNHYTQKSLSLSPGK
notes: B7H4 x CD3, 1+1 Fab-Fc-scFv: CD3 Fab from PR001848 (knob, LALA; strong CD3 end), B7H4 scFv(VL-VH)-Fc (hole, LALA)

Legend:
CD3 on human T cells = CD3 on human T cells (human, UniProt P07766 23-207; P04234 22-171; P09693 23-182); assay: FACS on human T cells; EC50 printed as n.d., curve still rising at 100 nM
Chain of CD3 on human T cells (P07766 23-207 limits assumed, chain 1 of 3): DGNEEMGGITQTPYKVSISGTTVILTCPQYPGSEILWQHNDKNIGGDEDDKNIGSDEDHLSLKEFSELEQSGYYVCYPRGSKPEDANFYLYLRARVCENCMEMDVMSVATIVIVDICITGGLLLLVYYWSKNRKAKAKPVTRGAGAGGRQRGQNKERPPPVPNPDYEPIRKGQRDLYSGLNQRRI
Chain of CD3 on human T cells (P04234 22-171 limits assumed, chain 2 of 3): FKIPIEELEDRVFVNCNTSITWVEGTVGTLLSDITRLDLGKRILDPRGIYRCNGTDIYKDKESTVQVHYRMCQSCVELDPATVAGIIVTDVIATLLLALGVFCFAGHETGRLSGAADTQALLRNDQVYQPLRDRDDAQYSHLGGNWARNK
Chain of CD3 on human T cells (P09693 23-182 limits assumed, chain 3 of 3): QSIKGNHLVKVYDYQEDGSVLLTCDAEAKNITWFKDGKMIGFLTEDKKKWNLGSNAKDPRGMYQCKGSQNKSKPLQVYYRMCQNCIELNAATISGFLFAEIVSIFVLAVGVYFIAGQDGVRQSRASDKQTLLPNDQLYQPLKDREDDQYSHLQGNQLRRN
Procedure: (§1) SK-BR-3 cells were digested. T cells were isolated using the human T cell isolation kit (Miltenyi, #130-096-535) as described in the method of the instruction, and resuspended with PBS containing 2% BSA. The cell density was adjusted to 1×10⁶ cells/mL. The cells were seeded in a 96-well V-bottom plate (Corning, #3894) at 100 μL/well, followed by the addition of test antibodies diluted in a 3-fold gradient at a concentration that was 2 times the final concentration, each at 100 μL/well. The cells were incubated at 4° C. for 2 h away from light. Thereafter, the cells in each well were rinsed twice with 100 μL of pre-cooled PBS containing 2% BSA, and centrifuged at 500 g at 4° C. for 5 min, and then the supernatant was discarded. Then each well was added with 100 μL of fluorescent secondary antibody (Alexa Fluor 488-conjugated AffiniPure Goat Anti-Human IgG, Fcγ Fragment Specific, Jackson, #109-545-098, diluted in a 1:500 ratio), and the plate was incubated away from light at 4° C. for 1 h. The cells in each well were washed twice with 100 μL of pre-cooled PBS containing 2% BSA, and centrifuged at 500 g at 4° C. for 5 minutes, and then the supernatant was discarded. Finally, the cells in each well were resuspended with 200 μL of pre-cooled PBS containing 2% BSA, and the fluorescence signal values were read using an ACEA Novocyte3000 flow cytometer.

[1] = target: T1, human B7H4 on the cell surface (human, UniProt Q7Z7D3 25-282); assay: FACS on SK-BR-3 cells
T1 construct: whole, on cells; also called CHOK1/hu B7H4; B7H4 on SK-BR-3
T1 sequence (looked up): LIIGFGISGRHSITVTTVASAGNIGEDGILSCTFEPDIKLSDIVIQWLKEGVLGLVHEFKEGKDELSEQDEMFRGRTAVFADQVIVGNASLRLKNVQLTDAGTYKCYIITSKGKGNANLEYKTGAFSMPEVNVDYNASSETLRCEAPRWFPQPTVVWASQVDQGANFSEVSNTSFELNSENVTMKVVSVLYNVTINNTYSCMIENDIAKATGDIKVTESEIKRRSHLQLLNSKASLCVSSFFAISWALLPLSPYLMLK
Procedure: as §1

Row | Binder | Maximum MFI (CD3 on human T cells) | EC50 [1] [nM] | Maximum MFI [1]
1 | B1 | 121000 | 0.933 | 146000
2 | B2 | 133000 | 0.676 | 179000
3 | B3 | 125000 |  | 
4 | B4 | 197000 | 4.05 | 179000
5 | B5 | 189000 | 1.32 | 212000
6 | B6 | 187000 |  | 
7 | B7 |  | 71.2 | 214000
